Reference: FireProtDB (doi:10.1074/jbc.271.51.32729)

B1: Ribonuclease HI, P0A7Y4 (parent)
chain: MLKQVEIFTDGSCLGNPGPGGYGAILRYRGREKTFSAGYTRTTNNRMELMAAIVALEALKEHCEVILSTDSQYVRQGITQWIHNWKKRGWKTADKKPVKNVDLWQRLDAALGQHQIKWEWVKGHAGHPENERCDELARAAAMNPTLEDTGYQVEV

Variants of: B1
Settings: Escherichia coli (strain K12), Thermal, CD, reversible: yes, structure 2RN2, whole UniProt chain shown
[1] = pH 9, 47 °C, glycine-NaOH 50 mM

Variant	ddG of mutation (higher = less stable) (pH 3, 50 °C, glycine-HCl 10 mM)	Tm (pH 3, glycine-HCl 10 mM)	change of melting temperature, mutant - wild type (higher = more stable) (pH 3, glycine-HCl 10 mM)	unfolding enthalpy (van 't Hoff) (pH 3, glycine-HCl 10 mM)	ddG of mutation (higher = less stable) [1]	Tm (pH 9, glycine-NaOH 50 mM)	change of melting temperature, mutant - wild type (higher = more stable) (pH 9, glycine-NaOH 50 mM)
D134N	0.1 kcal/mol	49.7 °C	-0.3 °C	110 kcal/mol	-1.8 kcal/mol	53.4 °C	6.4 °C
D134A	-0.8 kcal/mol	52.9 °C	2.9 °C	105 kcal/mol	-2 kcal/mol	–	–
D10A	-2.4 kcal/mol	58.1 °C	8.1 °C	105 kcal/mol	–	–	–
D10E	-1.1 kcal/mol	53.8 °C	3.8 °C	97.7 kcal/mol	-1 kcal/mol	50.4 °C	3.4 °C
D10H	-0.4 kcal/mol	51.5 °C	1.5 °C	115 kcal/mol	-2.4 kcal/mol	–	–
D10N	0.7 kcal/mol	47.4 °C	-2.6 °C	90.5 kcal/mol	-2 kcal/mol	53.8 °C	6.8 °C
D10S	-0.7 kcal/mol	52.4 °C	2.4 °C	121 kcal/mol	-2.7 kcal/mol	56.2 °C	9.2 °C
E48A	0.1 kcal/mol	49.8 °C	-0.2 °C	91.6 kcal/mol	0.3 kcal/mol	46 °C	-1 °C
E48Q	0.1 kcal/mol	49.8 °C	-0.2 °C	99.1 kcal/mol	–	48 °C	1 °C
E48D	-0.2 kcal/mol	50.8 °C	0.8 °C	103 kcal/mol	0.2 kcal/mol	46.2 °C	-0.8 °C
D70E	-0.5 kcal/mol	51.8 °C	1.8 °C	90.4 kcal/mol	-0.1 kcal/mol	–	–
D70A	0.1 kcal/mol	49.7 °C	-0.3 °C	85.5 kcal/mol	-1.1 kcal/mol	50.8 °C	3.8 °C
D70N	0.3 kcal/mol	48.8 °C	-1.2 °C	110 kcal/mol	–	52.5 °C	5.5 °C
